Tests used:
Format in all cases: in vivo, mouse
[1] = tested on: obese C57BL/6 mice; assay: Elevated plus maze, HFD mice treated with Reparixin; conditions: HFD C57BL/6 mice; Reparixin 30 mg/kg s.c. twice per day for 2 weeks vs non-treated
Method: (§1) Reparixin L-lysine salt (MedChemExpress, #HY-15252) or L-Lysine hydrochloride (MedChemExpress, #HY-N0470) was dissolved in H2O was administered to obese C57BL/6 mice (fed for 2 months with high-fat diet) via subcutaneous injection (30 mg/kg) twice per day for 2 weeks. 2 hours after the last injection mice were tested in open field and elevated plus maze and afterwards dissected. A grey colored elevated plus maze apparatus was used. Two open arms (25×5 cm) and two closed arms (25×5 cm) were attached at right angles to a central platform (5×5 cm). The apparatus was set 40 cm above the floor. Mice were first acclimatized to the room for 1-1.5 hours. Mice were then placed individually on the central platform with their back to one of the open arms. Before the test, mice were habituated for 1 minute to the maze, then placed back in the home cage for 5 minutes. Mice were tested for 5 minutes during which they could freely explore the apparatus. Tracking software (Ethovision) recognizes mouse head, central body point, and the base of the tail. Anxiety was quantified by frequency of and time spent during head pokes/dips toward open arms. Higher anxiety is indicated by a lower frequency of movement into open arms and less time spent there.

[2] = tested on: obese C57BL/6 mice; assay: Open field test, HFD mice treated with Reparixin; conditions: HFD C57BL/6 mice; Reparixin 30 mg/kg s.c. twice per day for 2 weeks vs non-treated
Method: (§2) Reparixin L-lysine salt (MedChemExpress, #HY-15252) or L-Lysine hydrochloride (MedChemExpress, #HY-N0470) was dissolved in H2O was administered to obese C57BL/6 mice (fed for 2 months with high-fat diet) via subcutaneous injection (30 mg/kg) twice per day for 2 weeks. 2 hours after the last injection mice were tested in open field and elevated plus maze and afterwards dissected. Locomotor activity and anxiety-like behavior of mice were assessed in sound-insulated, rectangular activity chambers (Med Associates Inc., St Albans, Vt., USA: W×L×D=27 cm×27 cm×20 cm with continually running fans, infrared lasers, and sensors). Beam breaks were assessed in 2-minute bins over 30 minutes, converted automatically to current mouse location and distance travelled (cm), and recorded on a computer with Med-PC software Version 4.0. Before the test, mice were acclimatized to the room for 1-1.5 hours before being introduced into the chambers. Mice were habituated for 5 minutes in the Open Field chamber (without recording) then placed for another 5 minutes in the home cage. Afterwards, mice were introduced back to the chambers and all mouse movements were recorded for 30 minutes. Anxiety was quantified by the distance mice travelled in the central 25% of the chamber (zone 1) as a function of the total distance mice travelled and by frequencies of entries into zone 1.

[3] = tested on: lean C57BL/6; assay: Elevated plus maze after Cxcl1 injection; conditions: Cxcl1 5 μg/kg i.p. daily for 7 days vs vehicle
Method: (§3) Recombinant CXCL1 (Peprotech, #250-11) or vehicle (PBS) was administered to lean C57BL/6 via i.p. injection (5 μg/kg in PBS) daily for 7 days. 2 hours after the last injection mice were tested in open field and elevated plus maze and afterwards dissected.
as §1, with “A” for “Reparixin L-lysine salt (MedChemExpress, #HY-15252) or L-Lysine hydrochloride (MedChemExpress, #HY-N0470) was dissolved in H2O was administered to obese C57BL/6 mice (fed for 2 months with high-fat diet) via subcutaneous injection (30 mg/kg) twice per day for 2 weeks. 2 hours after the last injection mice were tested in open field and elevated plus maze and afterwards dissected. A”

[4] = Circulating Cxcl1 after Cxcl1 injection in lean C57BL/6 mice; conditions: Cxcl1 5 μg/kg i.p. daily for 7 days vs vehicle
Method: as §3
Serum levels of cytokines: Eotaxin, G-Csf, Tnf-α, Il-6, Ifn-γ, Il-1α, Il-1β, Il-17, Il-2, Kc/Cxcl1, Mcp-1, M-Csf, Mig, Mip-1α, and Mip-1β were determined using a Multiplexing LASER Bead Assay (Mouse Cytokine Array/Chemokine Array 31-Plex (MD31), Eve Technologies; Canada). Blood was withdrawn from mice by punctuation of the sub-mandibular vein at the day of dissection before an animal was sacrificed. 50 μL of serum were shipped to Eve Technologies on dry ice. Due to high variability of data an unbiased elimination of outliers was performed using ROUT's method (Graphpad 7 Prism). The same panel was used to detect SASP in MAF and 50 μl of media was shipped to Eve Technologies on dry ice.

[5] = tested on: lean C57BL/6; assay: Open field test after Cxcl1 injection; conditions: Cxcl1 5 μg/kg i.p. daily for 7 days vs vehicle
Method: as §3
as §2, with “Locomotor” for “Reparixin L-lysine salt (MedChemExpress, #HY-15252) or L-Lysine hydrochloride (MedChemExpress, #HY-N0470) was dissolved in H2O was administered to obese C57BL/6 mice (fed for 2 months with high-fat diet) via subcutaneous injection (30 mg/kg) twice per day for 2 weeks. 2 hours after the last injection mice were tested in open field and elevated plus maze and afterwards dissected. Locomotor”

With CC(C)Cc1ccc([C@@H](C)C(=O)NS(C)(=O)=O)cc1 [Reparixin] the “behavior in the EPM” value [1] was “no difference” and the “behavior in the open field box” value [2] was “no difference”.

B1: Cxcl1: Recombinant CXCL1 (Peprotech, #250-11) injected i.p. into lean mice (protein, UniProt P12850 25-96, looked up)
Growth-regulated alpha protein: APIANELRCQCLQTMAGIHLKNIQSLKVLPSGPHCTQTEVIATLKNGREACLDPEAPLVQKIVQKMLKGVPK
For B1, the “anxiety-like behavior, EPM (head entries in the open arms)” value [3] was “no difference”, the “anxiety-like behavior, EPM (head entries in the open arms)” value ([3]; listed as Cxcl-1) was “not different” and the “circulating Cxcl1 in blood plasma” value [4] was “increased levels”. For the same molecule, the “circulating Cxcl1 in blood plasma” value ([4]; listed as Cxcl-1) was “significantly increased”, the “anxiety-like behavior, open field (distance in the central area)” value [5] was “no difference” and the “anxiety-like behavior, open field (distance in the central area)” value ([5]; listed as Cxcl-1) was “not different”.
